Columns and labels:
Assay in all cases: SPR; cytokine immobilised on ProteOn GLH sensor chip by amine coupling (9,000-14,000 RU); S100P (wild type or mutant) as analyte, 62 nM-16 µM; 25 °C; 10 mM HEPES, 150 mM NaCl, 1 mM CaCl2, 0.05% TWEEN 20, pH 7.4; heterogeneous ligand model (two ligand populations), one-site model for IL-13; values averaged over analyte concentrations (n = 3-5)
Conditions in all cases: both partners purified
Interleukin-5 = biological target: T1, Interleukin-5 (human, UniProt P05113 20-134)
T1 construct: Interleukin-5, human, UniProt P05113; also called IL-5; source: bought: PeproTech (source E. coli)

Interleukin-21 = biological target: T2, Interleukin-21 (human, UniProt Q9HBE4 25-162)
T2 construct: Interleukin-21, human, UniProt Q9HBE4; see the manufacturer's catalogue number; also called IL-21; source: bought: PeproTech (source E. coli)

[1] = biological target: T3, Granulocyte colony-stimulating factor (human, UniProt P09919-2 31-204)
T3 construct: Granulocyte colony-stimulating factor, human, UniProt P09919; No catalogue number (n/a); also called G-CSF; source: bought: Pharmstandard (Russia) (source E. coli)
T3 sequence (looked up): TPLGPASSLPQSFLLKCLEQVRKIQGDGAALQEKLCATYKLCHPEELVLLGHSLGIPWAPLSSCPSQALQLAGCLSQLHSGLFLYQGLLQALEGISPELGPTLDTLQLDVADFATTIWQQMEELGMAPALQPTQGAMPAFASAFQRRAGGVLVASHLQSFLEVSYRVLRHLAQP

Interleukin-15 = biological target: T4, Interleukin-15 (human, UniProt P40933 49-162)
T4 construct: Interleukin-15, human, UniProt P40933; see the manufacturer's catalogue number; also called IL-15; source: bought: PeproTech (source E. coli)

Interferon ω-1 = biological target: T5, Interferon ω-1 (human, UniProt P05000 22-195)
T5 construct: Interferon omega-1, human, UniProt P05000; see the manufacturer's catalogue number; also called IFN-ω1; source: bought: PeproTech (source E. coli)
T5 sequence (P05000 22-195): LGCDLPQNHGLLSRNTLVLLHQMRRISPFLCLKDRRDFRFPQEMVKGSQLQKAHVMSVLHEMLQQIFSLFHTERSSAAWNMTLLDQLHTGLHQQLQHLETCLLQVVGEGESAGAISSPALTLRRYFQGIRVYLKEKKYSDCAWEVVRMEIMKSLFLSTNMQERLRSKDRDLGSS

T2 sequence (Q9HBE4 25-162): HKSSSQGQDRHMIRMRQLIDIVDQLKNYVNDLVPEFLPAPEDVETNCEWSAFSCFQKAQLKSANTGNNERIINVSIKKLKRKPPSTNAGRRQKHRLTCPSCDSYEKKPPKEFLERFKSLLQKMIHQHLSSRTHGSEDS
T4 sequence (P40933 49-162): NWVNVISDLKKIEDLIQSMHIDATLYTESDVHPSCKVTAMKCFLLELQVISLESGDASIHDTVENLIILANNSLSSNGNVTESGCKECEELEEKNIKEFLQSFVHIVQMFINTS
T1 sequence (P05113 20-134): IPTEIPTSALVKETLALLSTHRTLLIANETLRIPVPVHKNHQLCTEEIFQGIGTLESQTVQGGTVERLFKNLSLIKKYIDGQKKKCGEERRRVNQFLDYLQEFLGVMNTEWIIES

B1: Human S100P protein (recombinant, Ca^2+-loaded) (natural protein)
chain: MTELETAMGMIIDVFSRYSGSEGSTQTLTKGELKVLMEKELPGFLQSGKDKDAVDKLLKDLDANGDAQVDFSEFIVFVAAITSACHKYFEKAGLK
notes: S100P protein, human, recombinant; probably the whole 95-residue protein (surmise); also called wild-type S100P; WT S100P; source: E. coli, prepared as previously described [28]
Kd1 (heterogeneous ligand model, population 1) (Interleukin-5): 3.66 nM | Kd2 (heterogeneous ligand model, population 2) (Interleukin-5): 833 nM | kd1 (heterogeneous ligand model, population 1) (Interleukin-5): 0.000612 s⁻¹ | kd2 (heterogeneous ligand model, population 2) (Interleukin-5): 0.00712 s⁻¹ | Kd1 (heterogeneous ligand model, population 1) (Interleukin-21): 272 nM | Kd2 (heterogeneous ligand model, population 2) (Interleukin-21): 285 nM | kd1 (heterogeneous ligand model, population 1) (Interleukin-21): 0.000928 s⁻¹ | kd2 (heterogeneous ligand model, population 2) (Interleukin-21): 0.0126 s⁻¹ | Kd1 (heterogeneous ligand model, population 1) [1]: 213 nM | Kd2 (heterogeneous ligand model, population 2) [1]: 854 nM | kd1 (heterogeneous ligand model, population 1) [1]: 0.000315 s⁻¹ | kd2 (heterogeneous ligand model, population 2) [1]: 0.0154 s⁻¹ | Kd1 (heterogeneous ligand model, population 1) (Interleukin-15): 102 nM | Kd2 (heterogeneous ligand model, population 2) (Interleukin-15): 980 nM | kd1 (heterogeneous ligand model, population 1) (Interleukin-15): 0.00109 s⁻¹ | kd2 (heterogeneous ligand model, population 2) (Interleukin-15): 0.0272 s⁻¹ | Kd1 (heterogeneous ligand model, population 1) (Interferon ω-1): 174 nM | Kd2 (heterogeneous ligand model, population 2) (Interferon ω-1): 578 nM | kd1 (heterogeneous ligand model, population 1) (Interferon ω-1): 0.000571 s⁻¹ | kd2 (heterogeneous ligand model, population 2) (Interferon ω-1): 0.00839 s⁻¹

Reference: article PMC9569990 (International Journal of Molecular Sciences, 2022)
